# Source: the supplement of paper PMC12636428
# System: Saccharomyces cerevisiae
# Assay: transcriptional activation domain activity (GFP:mCherry ratio, weighted mean of sorted bins, harmonized to initial dataset scale) (arbitrary fluorescence ratio units); higher = stronger transcriptional activation
# Conditions: beta-estradiol 1 µM; induction time 4 h
# How it was run: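 Sorting into 8 bins by GFP:mCherry ratio followed a 4-hour hold at 30 °C after cultures were diluted 1:5 into SC with 1 uM beta-estradiol. The yeast diploids carried a GFP reporter and had barcoded protein tiles, fused to an estradiol-inducible synthetic transcription factor, integrated at URA3. Barcodes were then sequenced, and tiles with under 50 reads were removed. Activation activity is the read-weighted mean of bin median fluorescence, averaged across barcodes and linearly mapped onto the initial dataset scale.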
row,Sequence,transcriptional activation domain activity
1,ALKLLVDKVEDPKKNGPKFLKRAQLVVTGFNSQLKARSQRIGHFVNLLQVYLT,61600
2,GTDDAEAREKTGAADPSADPASRKRRADDGEGDARKRIRTEGGSASAAAASSS,14100
3,SFSLLALSFFFLHVLFSLIIAPCVWFWFFSWLWFWLDLSSPRTYCIHIWLIHP,39300
4,YDILKCVLPCIVQLLPRNSPLVHCIRAYQCYRIMIGLQCMTERRLKHLQELIK,44800
5,WIIPTPFGSHAFHPVDGYFQSVPYHLFIFIFPLHRVLYLTLFVLVNFWSIFIH,61100
6,VIYTSFFLYIYTPFIPFFFLFFFFLLLIPTFYIYMKRVLYYGLILWWFIQYSL,51700
7,RFLLAALLLFGPLIGSCPSMSMSLMITEFGLFCCACLLGFVHHLFFPIFVESR,47600
8,MRCLRSVLGVFFLSYSLYILHCIFCLISYPLAISFMNLSCLGWFHGFWGFIYF,36000
9,DLLFNVAAFVFVGAWTPFNQFSDPALSLSVWRLIVIAILVLLLRRLPAIIALY,27800
10,FGHVINEFVLSTFLTDQCHKIPQDTVNAYFEDCSTISTSQILMLLYILTFNDY,60700
11,GGKAKGRKGKEKEKEKEVADKPAARKCAAPKAAPKKATVKKAAKKVKETGKGS,28700
12,NRKTIGKQDPYCAARLGKEAKKTETDRRGGQTPRWDQEMRFTVHDSPDYYQLK,21000
13,TFTDIPVVVCHVFKQKLAKLMSNLCTMFPNAGWLVYSITSIEFQKHGVTHRND,51100
14,VALDHLYLDEEQTHAIKSLSSLYIKVVIIFIKYLLVHRKIKQRLVRSWAYCYD,57900
15,RKPEAAAEKAAEAPEAAGGEGTRRRASGRGRGRGRNGRGGRSARAGEEKKDET,29500
16,FSIVACVVGCQDSEWGLQFSHERCFTLHTLGHLSQFEKIVVVLIACKLLLFSK,65200
17,MEEPSGDASRRRNGPRLYHKKSRLGCIRCKQRRVKCDEKRPACTGCSRHAVEC,60500
18,KLEYVSLGRIEIVACFDKYTMASKGIHMLLGCCFSKIKFVCLSQADYQAAVLL,67100
19,ESAAASSNQSSAPASAPTPNAPPSTANAEGGENKPKPSRRRGRGGGGGGQKQN,27400
20,RFLFQWDLELALSLCLSHTLGIISLPYKSIFISILWLIQSSWQLLFFLFWQPL,70400
21,GGAAAKESESKSSASTSKASISKGKDEQGAGASGGNKKGGGGKATTKRGRKKG,29400
22,QKRGLETHHRRSGFWAALRRAEKGKSWVFLFFFFLFFPFFSFFYFFLLFLFLF,21800
23,ALLAISLTSFLCSSVFLEIETWCKKYRSHLLLVLMIPMVEPLISLFISFMWLL,62500
24,TSKAQESKTKEGDKEEKAATKREKDDSKEEDDDDDNETEEKQAGDKRKKTNGS,30800
25,RTFLRWTLDTLAQCTTFEVMWLILTGVIQDYIDEYKRNRTLTKLLIEALIKSY,55500

row,Sequence,transcriptional activation domain activity
1,QHNASQPGDLHSVLHRNQREGQHSVNQLVDRHSESQRGGQHNVNQQRDLQHGN,33400
2,GMKNIDEGPETENDATENSLTTILNDLEGPLEDFSENFIDDILGSPSAFFDTA,151000
3,KFANNVSEMKKLGARDFEDILQNLIPVVDGLLDEPYNSWILTLLFRLAEWHAL,42400
4,SCLAVITWDVLNFLIVDCHIIFYRKFNWRVLVFIVARLSPYCFFLSLSISLTS,60900
5,MAGVGYYDLKQLMMVFLLVWLLAICVGPWYQGCFSPSFLLFCFYQPYIFISFL,52900
6,WHTDLGIPSFGWTLLHELEGLLGRIEANWMEEVTVRTIVLLTSRLLSAVRDHD,55200
7,KEEESNELKSEQEPPSAVESIAAVMTPSDNGSRFYIKRRILIGNVSKYIAPER,23100
8,VDNQFLSTRSIVTEACRKRGIYLTWIDSDPDILNYLQLSTFQFIVLLMLPLTP,42900
9,GNNKPRGNNQRGGARNVRNGAEAGDEEAPREQRDSRSSRGRGEGRGRGRGRGG,31700
10,QAAAPAEKPATAAAGEAEKDGAAARGASTRGRGRGRGRGGRGGATAARRPRAD,46200
11,LNCLDLSGIDCCLFFMALRLEVLYSWFLFLAWQLLCTHPALLAFAFGFLGFLI,51600
12,KQYCVRPNSGRIEVGSEVEVQVLLQAMREDPPPDARCRDKFLVQSVAITPERD,42800
13,FLHLLKIIRPSFAFYFTILFWWCIQVQLLLQIIINRIRVIVPNRKLSRHIMWG,66300
14,MKRVLHVRNVARVNSGGKVRSVSALVVVGNGQGAAGYGEGRAVDAAAAVQKAT,54500
15,MVCCAFFVVFFLIEIFIILFLCLPFFSFLFLLWEGRVGGYALWLLSVQVCVRT,55800
16,FHRGGSNGSNSNNNNNAGDLQHHQHAGINKTTANVSEKYHWNRIKGTVTDVIE,28300
17,MPNLGLRREWYKGDFSVKYTQLTLIYLVMCVWFPSCLGGYMLTLQYIMLLLIM,68600
18,MLLLPLSFPFLSFPFLSFPFLSFPFLSSPFLSLVFSVLVLFFIFLLLLLLLLL,34900
19,KKAAAALNGEAADGEATAEGEGAPKREPRAKKPRTPRPRRAPGEEPAGEPSKN,44900
20,SMGENLFDVFRARVILTWYYWTHARWCDVYMSSVISLRLAVTCGLNGCPPFQT,75000
21,EQSGNGDINNGTRNDIEINLYRSHPTMIMSKVMKREVKPLSENYIIIQDCFLK,62500
22,RLILILSLLVCWAAAIIDCVFVIIAGVTGVLQPQSRYLVLLLPMLFTNFLATL,57300
23,IIFYLIISIIIIIILLLFYYYLLFIIMFFIQDVGCWLLLWCFVGLFELLLQLL,28700
24,TDMDLKILEDLCNISSLYEVPFGKHINHHDHNNAGNGCDGSSTGNNENGNQTM,77600
25,GKDAEAADKPIEGKDAGDVEMNDAPEKEPEAEAAKPKGRGGRPKKVVPAAAAP,23900

row,Sequence,transcriptional activation domain activity
1,FFPLGFLMRFLLFDLSLSCFLSFPLFLFSLPTTFLLYYYFPPHTIIMSCGSPI,43500
2,TGLDGTAYVMFWTINVNVLMLLSQWILEERVRSRALQFCFRYYYFMVYFIFYR,55300
3,MITVALYIIGRGFFSFFFIFCHFTILVFLFLAAYFFLFFSCPFLLLFYFFWFT,54200
4,EDEEASAAHAAPPTTTTAGGRGKKKKGGASRKKENSAAPSKSAKASAPANIPP,20700
5,GSKGAMRARAEERGEGGEGGEREEGREGRGERRGGGRGGEGRERERGGREGRG,25000
6,NRVIGVQGKNQEGACYEKLSPSSTSVSVGMDFCSLENFVTAESLPDLLNLFWE,111000
7,AAEEAAVADGECPSKKKRQAELSKQISAKWKGLSPEDRRYWDTLAKEKKREHE,19500
8,LGVLLLLLLYANVVLLIYHAPTTRKPFDLAFIHAPVRAFMLLPLTILFPYSLF,57300
9,KIHLVNIGQVLVLLLHRFLYGIIPLFEITTCAYFPFLVSLWHIQYILFYAVMF,84900
10,MFMGTLWLVIFHYGWAFFLDYCVWYFMISLCFWCEVCLPVLLPAFHVCCLLWC,52400
11,KGANQAVACAKLSRSRPQPSSSTSSSSTEAGANDAETHATAHVSMLGAVGDDS,18700
12,MLFHFLAFPFLFFIFFLCCFSSWVAFHSPFSFLIMFSFEWIMLFFIRCTASSV,41600
13,ERKRERREKKEKEREREQREEREKSKERSGKKNGKDSEKRRERRGEKGSEERR,32800
14,RSESGSPARRKKKRSSRDSEDSAGESSDSDAGARRKSRKGKDSRRDRKSKKDK,37600
15,LFSFSVAYRYFYFFWYVVLERQIRIFRWIAVSIFVWTLVIGFSLYQGLTKQYI,31800
16,DCDLTCDTPCTASTSATSGHKFVQDHQSSNNDDVFHKYCKFCEESTDNQPCSK,58300
17,KREQREKEKEAEREREREKAARAARRESRREERTRREDEKERGARHEERTSRY,28000
18,GSAAKAGAGTGAGKAAAGGKTSAAATARGGGGAGAGGGKGAGGASAKAGTGGG,31600
19,NLHNASTSSFNNEAFWKPLDSAIDHHSGDTNPNSNMNTTPNGNLSLDWLNLNL,84600
20,CWVVWGRRWLIVLLPIICLITATVSKVLQVYLVNSNAYMLYEVFLMLYISFVL,44100
21,WIPFTLSIIVVEIPYLLFFSTSLLCGIYWTAGLSNTPDAVGYFYLMIFFFIFW,61600
22,EQAPREGQGQGRGRGGRPRGEGRGRGGRGRGRGAPAGNGAAEAAATTAPKSTE,21700
23,RKDKSRVEDSDSADSDAGHVNGNKAGEGEEGAAKKKRKRRHKKRVPDGEGASV,29700
24,APPPPPPPPPPAPPARSGAPPPPPPPPPPPMGGAPPPPPPPMGGPPPPPPPPP,36400
